The values below come from patent US6365711 (Harvard, dated 2002).

For the assay, the target named is T1, Myc-tagged Δ473-534 (Xenopus, UniProt P70056 61-472).
T1 construct: also called deletion of an additional 33 C-terminal amino acids
T1 sequence: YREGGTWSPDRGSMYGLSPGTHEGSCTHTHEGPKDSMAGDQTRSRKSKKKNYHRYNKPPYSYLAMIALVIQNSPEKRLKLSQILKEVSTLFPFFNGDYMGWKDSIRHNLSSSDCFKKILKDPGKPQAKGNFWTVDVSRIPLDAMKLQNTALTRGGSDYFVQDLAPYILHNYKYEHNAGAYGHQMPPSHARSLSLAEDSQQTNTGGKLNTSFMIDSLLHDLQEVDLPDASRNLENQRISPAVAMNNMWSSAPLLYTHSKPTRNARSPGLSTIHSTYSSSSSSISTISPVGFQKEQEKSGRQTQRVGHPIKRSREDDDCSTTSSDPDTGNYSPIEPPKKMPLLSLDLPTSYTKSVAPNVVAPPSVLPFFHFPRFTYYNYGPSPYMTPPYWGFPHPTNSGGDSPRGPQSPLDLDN
The experiment in a line: FAST-1 deletion mutant co-expressed with tagged Smad in Xenopus embryos.

B1: Myc-tagged Smad2 (other, not shown: small tags and cut ends)
chain: MSSILPFTPPVVKRLLGWKKSASGTTGAGGDEQNGQEEKWCEKAVKSLVKKLKKTGQLDELEKAITTQNCNTKCVTIPSTCSEIWGLSTANTIDQWDTTGLYSFSEQTRSLDGRLQVSHRKGLPHVIYCRLWRWPDLHSHHELKAIENCEYAFNLKKDEVCVNPYHYQRVETPVLPPVLVPRHTEILTELPPLDDYTHSIPENTNFPAGIEPQSNYIPETPPPGYISEDGETSDQQLNQSMDTGSPAELSPSTLSPVNHNLDLQPVTYSEPAFWCSIAYYELNQRVGETFHASQPSLTVDGFTDPSNSERFCLGLLSNVNRNATVEMTRRHIGRGVRLYYIGGEVFAECLSDSAIFVQSPNCNQRYGWHPATVCKIPPGCNLKIFNNQEFAALLAQSVNQGFEAVYQLTRMCTIRMSFVKGWGAEYRRQTVTSTPCWIELHLNGPLQWLDKVLTQMGSPSVRCSSMS
notes: Expressed from injected RNA in Xenopus embryos; also called Myc-Smad2
B1: the binding result is listed as “no binding”.
